Results taken from the nanobody polyreactivity screen of Harvey et al. (2022).

assay: yeast display, Sf9 membrane polyspecificity reagent, FACS + sequencing; frameworks hold sequencing errors
Procedure, shortened: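 Sorting gates, low and high (top ~1%), were placed on anti-HA fluorescence to track expression and on streptavidin fluorescence to track reagent binding. A clone's polyreactivity label is taken from the gate it came out of. The reagent was 10% biotinylated, detergent-solubilized Sf9 membrane, applied for 1 hour at 4 °C to galactose-induced yeast display cells.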

Sequence | polyreactivity (PSR sort gate)
QVQLVESGGGLVQAGGSLRLSCAASGFIFYRYAMGWYRQAPGKERELVAAISYSGGSTYYADSVKGRFTISRDNAKNTVYLQMNSLKPEDTAVYYCAKGLTALGDYWGQGTQVTVSS | high polyreactivity
QVQLVESGGGLVQAGGSLRLSCAASGFIFYRYAMGWYRQQPGKERELVAAISSRGGTTYYADSVKWRFTISRDNAKNTVYLQMNSLKPEDTAVYYCAADRGYKMGYWLQGTQVTVSS | high polyreactivity
QVQLVESGGGLVQAGGSLRLSCAASGFIFYRYTMGWYRPAPGKERELVASITWSDGSTSYADSVNGRFTISRDNAKNTVYLQMNSLKPEDTAVYYCAADVSYQVIYEYDYSGQGTQVTVSS | low polyreactivity
QVQLVESGGGLVQAGGSLRLSCAASGFIFYRYTMGWYRQAPGKERELVAAITSAGSTYYADSVKGRFTISRDNAKNTVYLQMNSLKPEDTAVYYCNADSTWGGYGFDYWGQGTQVTVSS | low polyreactivity
QVQLVESGGGLVQAGGSLRLSCAASGFIFYRYTMGWYRQAPGKERELVAGISSRGTRTYYADSVKGRFTISRDNAKNTVYLQMNSLKPEDTAVYYCAAVLTQPKKVNYWGQGTQVTVSS | high polyreactivity
QVQLVESGGGLVQAGGSLRLSCAASGFIFYRYVMGWFRQAPGKERELVAAISGRGGSTYYADSVKGRFTISRDNAKNTVYLQMNSLTPEDTAVYYCNRLVYRAAGGPMDYWGQGTQVTVSS | high polyreactivity
QVQLVESGGGLVQAGGSLRLSCAASGFIFYSNAMGWYRQAPGKERELVAAISRGGGSTYYADSVKGRFTISRDNAKNTVYLQMNSLKPEDTAVYYCAAELYRWYYYWGQGTQVTVSS | high polyreactivity
QVQLVESGGGLVQAGGSLRLSCAASGFIFYSNAMGWYRQAPGKERELVAAISWDAGSTYYADSVKGRFTISRDNAKNTVYLQMNSLKPEDTAVYYCATDRIVGRYIYNNWGQGTQVTVSS | high polyreactivity
QVQLVESGGGLVQAGGSLRLSCAASGFIFYSNMGWYRQARGKEREFVAAITWRGGSTYADSVKGRFTISRDNAKNTVYLQMNSLKPEDTAVYYCARESYRAHTPGHPSGTRFGYWGQGTQVTVSS | high polyreactivity
QVQLVESGGGLVQAGGSLRLSCAASGFIFYTYAMGWYRQAPGKERELGADITSGGSTYYADSVKGRFTISRDNAKNTVYLQMNSLKPEDTAVYYCAADPGYPANRTEWRDFDYWGQGTQVTVSS | low polyreactivity
QVQLVESGGGLVQAGGSLRLSCAASGFIFYVYAMGWYRQAPGKERELVATITSGGSTNYADSVKGRFTISRDNAKNTVYLQMNSLKPEDTAVYYCAADGWQSQYEYDYWGQGTQVTVSS | low polyreactivity
QVQLVESGGGLVQAGGSLRLSCAASGFIFYWYAMGWYRQAPWKEREFVAAISSSGGNTSYADSVKGRFTISRDNAKNTVYLQMNSLKPEVTAVYYCAATSRAFYRSLYYYWGQGTQVTVSS | low polyreactivity
QVQLVESGGGLVQAGGSLRLSCAASGFIFYYNAMGWYRQAPGKERELVAAISSRGGSTYYADSVKGRFTISRDNAKNTVYLQMNSLKPEDTAVYYCNAKRYFRNHFRTGGMYYWGQGTQVTVSS | high polyreactivity
QVQLVESGGGLVQAGGSLRLSCAASGFIFYYNAMGWYRQAPGKERELVAGISRSAGSTYYADSVKGRFTISRDNAKNTVYLQMNSLKPEDTAVYYCNAEVYGGRYYVDMYYWGQGTQVTVSS | low polyreactivity
QVQLVESGGGLVQAGGSLRLSCAASGFIFYYYAMGWYRQAPGKEREFVAGISRSGGSTYYADSVKGRFTISRDNAKNTVYLQMKSLKPEDTAVYYCAARYVQHKIYRLAQGEYWGQGTQVTVSS | high polyreactivity
QVQLVESGGGLVQAGGSLRLSCAASGFIFYYYAMGWYRQAPGKERELVAAISTSGGSTYYADSVKGRFTISRDNAKNTVYLQMNSLKPEDTAVYYCAAKIIGRPRTTDRYDYWGQGTQVTVSS | low polyreactivity
QVQLVESGGGLVQAGGSLRLSCAASGFIFYYYAMGWYRQAPGKERELVAAISWSGARTYYADSVKGRFTISRDNAKNTVYLQMNSLKPEDTAVYYCNAVAFYPRSSRSWRLDYWGQGTQVTVSS | high polyreactivity
QVQLVESGGGLVQAGGSLRLSCAASGFIFYYYAMGWYRQAPGKERELVAAISWSGGITYYADSVKGRFTISRDNAKNTVYLQMNSLKPEDTAVYYCNAVSSGDMDYWGQGTQVTVSS | high polyreactivity
QVQLVESGGGLVQAGGSLRLSCAASGFIFYYYAMGWYRQAPGKERELVAAISWSGGRTYYADSVKGRFTISRDNAKNTVYLQMNSLKPEDTAVYYCAAVGYSKRYIYWGQGTQVTVSS | high polyreactivity
QVQLVESGGGLVQAGGSLRLSCAASGFIFYYYAMGWYRQAPGKERELVAAITQGGGSTYYADSVKGRFTISRDNAKNTVYLQMNSLKPEDTAVYYCAAVKRVYAHSRAFSSDFYYWGQGTQVTVSS | high polyreactivity
QVQLVESGGGLVQAGGSLRLSCAASGFIFYYYDMGWYRQAPGKERELVAAITYDGGSTYYADSVKGRFTISRDNAKNTVYLQMNSLKPEDTAVYYCNAVYGQYYDYWGQGTQVTVSS | low polyreactivity
QVQLVESGGGLVQAGGSLRLSCAASGFIFYYYTMGWYRQEPGKEREFVAAITYSGGRTYYADSVKGRFTISRDNAKNTVYLQMNSLKPEDTAVYYCAVALFETGHYYWGQGTQVTVSS | high polyreactivity

Sequence | polyreactivity (PSR sort gate)
QVQLVESGGGLVQAGGSLRLSCAASGFIIANNAMGWYRQAPGKERELVASIRTRGGSTYYADSVKGRFTISRDNAKNTVYLQMNSLKPEDTAVYYSAARPFPRRYDYWGQGTQVTVSS | low polyreactivity
QVQLVESGGGLVQAGGSLRLSCAASGFIIAYYAMGWYRQAPGKEREWVAAITSDGGSTYYADSVKGRFTISRDNAKNTVYLQMNSLKPEDTAVYYCAAQGYPYGRLWGGYYRYDYWGQGTQVTVSS | high polyreactivity
QVQLVESGGGLVQAGGSLRLSCAASGFIIGFNAMGWYRQAPGKERELVAAISGSGGRTYYADSVKGRFTISRDNAKNTVYLQMNSLKPEDTAVYYCAKVGYKSPYLYSQHYTGFGYWGQGTQVTVSS | high polyreactivity
QVQLVESGGGLVQAGGSLRLSCAASGFIIGRNAMGWYRQAPGKERELVAAMSTSGASTYYADSVKGRFTISRDNAKNTVYFQMNSLKPEDTAVYYCAARRPVWDGRGSGYDYWGQGTQVTVSS | low polyreactivity
QVQLVESGGGLVQAGGSLRLSCAASGFIIGVYAMGWYRQAPGKEREFVAAISLTGGSTSYADSVKGLFTISRDNAKNTVYLQMNSLKREDTAVYYCAADAWFWVRWGENYWGQGTQVTVSS | low polyreactivity
QVQLVESGGGLVQAGGSLRLSCAASGFIIGYYAMGWYRQAPGKVREFVAAISRSGGSTYYADSVKGRFTISRDNAKNTVYLQMNSLKPEDTSVYYCAADYQKTYTSKFNYWGQGTQVTVSS | high polyreactivity
QVQLVESGGGLVQAGGSLRLSCAASGFIIKVYAMGWYRQAPGKERELVAAITWSGGSTYYADSVKGRFTISRDNAKNTVYLQMNSLKPEDTAVYYCAADTYYPDWITYPQGDFDYWGQGTQVTVSS | low polyreactivity
QVQLVESGGGLVQAGGSLRLSCAASGFIIKYYAMGWYRQAPGKERELVAAIDGSSASTYYADSVKGRFTISRDNAKNTVYLQMNSLKPEDTPVYYCAVARLRRGGVQYGYWGQGTQVTVSS | high polyreactivity
QVQLVESGGGLVQAGGSLRLSCAASGFIIPGYAMGWYRQAPGKEREFVAAISRSGGSTYYADSVKGRFTISRDNAKNTVYLQMNSLKPEDSAVYYCATRARGYTGYDYWGQGTQVTVSS | high polyreactivity
QVQLVESGGGLVQAGGSLRLSCAASGFIIRGNVMGWYRQAPGKERELVAAISGRGGSTYYADSVKGRFTISRDNAKNTVYLQMNSLKPEDTAVYYCNAAGLYNSRLDYWGQGTQVTVSS | high polyreactivity
QVQLVESGGGLVQAGGSLRLSCAASGFIIRRYAMGRYRQAPGKEREMVASIDRSGASTYYADSVKGRLTISRDNAKYTVYLQMNSLKPEDTAVYYCNKAFAWTGWYSVQGDYWGQGTQVTVSS | high polyreactivity
QVQLVESGGGLVQAGGSLRLSCAASGFIIVYYAMGWYRQAPGKERELVAGISSGGSTYYADSVKGRFTISRDNAKNTVYLQMNSLKPEDTAVYYCATRYLYRGYSYFAYDYWGQGTQVTVSS | low polyreactivity
QVQLVESGGGLVQAGGSLRLSCAASGFILAQNAKGWSRQAPGKEWELVAAISRRGGRTSYADSVKGRFTISRDNAKNTVYLQMNSLKPEDTAVYYCAALPPRASSDAGGWYVAEDYWGQGTQVTVSS | high polyreactivity
QVQLVESGGGLVQAGGSLRLSCAASGFILATNAMGWSRQAPGKERELVAAISYAGGSTNYADSVKGRFTISRDNAKNTVYVPMNSLKPEDTAVYYCNAGGTVIWAWYCPVYSWGHGTQVTVSS | low polyreactivity
QVQLVESGGGLVQAGGSLRLSCAASGFILDTYGMGWYRQAPGKERELVAAISQSDVSTYYADSVKGRFTISRDNAKNTVYLQMNSLKPEDTAVYYCAADRGGLRWFWQVLYDYWGQGTQVTVSS | low polyreactivity
QVQLVESGGGLVQAGGSLRLSCAASGFILGYNAMGLYRQAPGKERELVAAINGGSGSTYYADSVKGRFTISRDNAKNTVYLQMNSLKPEDTAVYYCAAEVTWAFFYERDYWGQGTQVTVSS | high polyreactivity
QVQLVESGGGLVQAGGSLRLSCAASGFILGYNAMGWYRQEPGKERELVADITFSGGGTNYADSVKGRFTISRDNAKNTVYLQMNSLKPEDTAVYYCNAAAFSQLRVRYDYWGQGTQVTVSS | low polyreactivity
QVQLVESGGGLVQAGGSLRLSCAASGFILKFYAMGWYRQAPGKERELVAAISRRGGSTYYADSVKGRFTISRDNAKNTVYLQMNSLKPEDTAVYHCAKDGTTSRVSDSSDYWGQGTQVTVSS | high polyreactivity
QVQLVESGGGLVQAGGSLRLSCAASGFILKYYAMGWYRQAPGKERELVAAISVRGGSTYYADSVKGRFTISRDNAKNTVYLQMNSLKPEDTAVYYCAARHRYGGAFVDYDYWGQGTQVTVSS | high polyreactivity
QVQLVESGGGLVQAGGSLRLSCAASGFILLDNAMGWYRQAPGKEREFVASINISGDRTFYADSVKGRFTISRDNAKNTDYLQMNSLKPEDTAVYYCNALPSEPMVYWGQGTQVTVSS | low polyreactivity
QVQLVESGGGLVQAGGSLRLSCAASGFILLDNGMGWYREAPGKERELVAAITYSGDTTYYADSVKGRFTISRDNAKNTVYLQMNSLKPEDTAVYYCNADNDKWTTGHDYWGQGTQVTVSS | low polyreactivity
